test system: Escherichia coli TOP10; test: shrunken log2 fold change of peptide-encoding DNA abundance (4.5 h post-induction vs induction); higher = less antimicrobial activity (less host growth inhibition); conditions: time post-induction: 4.5 h; library: site-saturation at positions 5, 18, 19, 20
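Also: peptides expressed intracellularly from a pBAD plasmid library in pooled LB shake-flask culture, induced with 0.3% L-arabinose, DNA abundance read by NGS, three biological replicates, DESeq2 with apeglm shrinkage.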

Sequence | shrunken log2 fold change
RRIRIRPPRLPRPRPRPHYGPRP | -0.223
RRIRDRPPRLPRPRPRPTGKPRP | 0.0507
RRIRDRPPRLPRPRPRPHKPPRP | -0.000627
RRIRLRPPRLPRPRPRPMMKPRP | -0.0811
RRIRLRPPRLPRPRPRPHTGPRP | -0.158
RRIRARPPRLPRPRPRPPRNPRP | 0.965
RRIRKRPPRLPRPRPRPFWYPRP | 0.0709
RRIRVRPPRLPRPRPRPEFNPRP | 0.203
RRIRHRPPRLPRPRPRPCQFPRP | -0.0209
RRIRNRPPRLPRPRPRPTTEPRP | -0.257
RRIRCRPPRLPRPRPRPLSSPRP | -0.173
RRIRPRPPRLPRPRPRPFADPRP | 0.174
RRIRPRPPRLPRPRPRPPAEPRP | 0.632
RRIRRRPPRLPRPRPRPAHPPRP | 0.769
RRIRQRPPRLPRPRPRPINVPRP | -0.0732
RRIRMRPPRLPRPRPRPKEEPRP | 0.0115
RRIRHRPPRLPRPRPRPHVYPRP | -0.939
RRIRRRPPRLPRPRPRPNPTPRP | 0.0244
RRIRMRPPRLPRPRPRPFTWPRP | 0.0653
RRIRARPPRLPRPRPRPQLKPRP | 0.237
RRIRPRPPRLPRPRPRPIMSPRP | 0.0779
RRIRYRPPRLPRPRPRPDTAPRP | -0.343
RRIRRRPPRLPRPRPRPDWCPRP | 0.201
RRIRGRPPRLPRPRPRPRYMPRP | -0.0195
RRIRARPPRLPRPRPRPKDQPRP | 0.504

Sequence | shrunken log2 fold change
RRIRTRPPRLPRPRPRPKTWPRP | -0.268
RRIRWRPPRLPRPRPRPQERPRP | -0.0207
RRIRGRPPRLPRPRPRPWRMPRP | -0.000462
RRIRGRPPRLPRPRPRPHQLPRP | 0.339
RRIRRRPPRLPRPRPRPSQYPRP | 0.0176
RRIRSRPPRLPRPRPRPIWHPRP | -0.271
RRIRFRPPRLPRPRPRPDHAPRP | -0.102
RRIRGRPPRLPRPRPRPYWTPRP | -0.0522
RRIRNRPPRLPRPRPRPWEEPRP | -0.00133
RRIRQRPPRLPRPRPRPKCVPRP | -0.018
RRIRGRPPRLPRPRPRPEYTPRP | 0.335
RRIRARPPRLPRPRPRPMWCPRP | 0.172
RRIRWRPPRLPRPRPRPFFWPRP | 1.17
RRIRCRPPRLPRPRPRPLGYPRP | 0.0405
RRIRIRPPRLPRPRPRPAGVPRP | 0.293
RRIRGRPPRLPRPRPRPKPHPRP | 0.854
RRIRSRPPRLPRPRPRPPPMPRP | 0.817
RRIRVRPPRLPRPRPRPTDGPRP | 0.0478
RRIRRRPPRLPRPRPRPSYCPRP | -0.0727
RRIRIRPPRLPRPRPRPASTPRP | -0.0836
RRIRSRPPRLPRPRPRPVVEPRP | 0.13
RRIRCRPPRLPRPRPRPGYCPRP | -0.0918
RRIRARPPRLPRPRPRPNKEPRP | -0.211
RRIRTRPPRLPRPRPRPMFSPRP | -0.263
RRIRQRPPRLPRPRPRPFPLPRP | -0.0585

Sequence | shrunken log2 fold change
RRIRSRPPRLPRPRPRPNSYPRP | -0.00251
RRIRQRPPRLPRPRPRPTSHPRP | 0.0206
RRIRGRPPRLPRPRPRPRDRPRP | 0.789
RRIRTRPPRLPRPRPRPHKRPRP | -0.0155
RRIRARPPRLPRPRPRPPTWPRP | 1.67
RRIRRRPPRLPRPRPRPKQYPRP | -0.215
RRIRARPPRLPRPRPRPPTYPRP | 0.0408
RRIRHRPPRLPRPRPRPNKYPRP | -0.782
RRIRQRPPRLPRPRPRPAPVPRP | 1.06
RRIRSRPPRLPRPRPRPKWCPRP | -0.132
RRIRKRPPRLPRPRPRPVSMPRP | 0.224
RRIRRRPPRLPRPRPRPMCRPRP | 0.37
RRIRSRPPRLPRPRPRPPRTPRP | 0.619
RRIRCRPPRLPRPRPRPQVHPRP | -0.233
RRIRNRPPRLPRPRPRPHRCPRP | -0.0136
RRIRNRPPRLPRPRPRPCRKPRP | -0.0373
RRIRQRPPRLPRPRPRPLPFPRP | -0.782
RRIRMRPPRLPRPRPRPWSNPRP | -0.254
RRIRYRPPRLPRPRPRPMCWPRP | -0.213
RRIRSRPPRLPRPRPRPRYIPRP | -0.707
RRIRRRPPRLPRPRPRPMCSPRP | -0.0511
RRIRGRPPRLPRPRPRPYVFPRP | -0.141
RRIRRRPPRLPRPRPRPLETPRP | 1.01
RRIRSRPPRLPRPRPRPICEPRP | 0.0675
RRIRYRPPRLPRPRPRPLIQPRP | -0.559

Sequence | shrunken log2 fold change
RRIRWRPPRLPRPRPRPFYVPRP | -0.348
RRIRSRPPRLPRPRPRPGTLPRP | -0.571
RRIRYRPPRLPRPRPRPVHYPRP | -0.0657
RRIRVRPPRLPRPRPRPEFAPRP | 0.169
RRIRERPPRLPRPRPRPQDKPRP | -0.0918
RRIRMRPPRLPRPRPRPFLVPRP | -0.0501
RRIRKRPPRLPRPRPRPHALPRP | 0.154
RRIRYRPPRLPRPRPRPFATPRP | -0.49
RRIRSRPPRLPRPRPRPGTMPRP | -0.315
RRIRDRPPRLPRPRPRPYTGPRP | -1.03
RRIRWRPPRLPRPRPRPKMEPRP | 0.577
RRIRMRPPRLPRPRPRPHMMPRP | -0.135
RRIRVRPPRLPRPRPRPMVWPRP | 0.117
RRIRFRPPRLPRPRPRPSRTPRP | 0.0872
RRIRHRPPRLPRPRPRPCIFPRP | -0.597
RRIRMRPPRLPRPRPRPGDLPRP | -0.0671
RRIRRRPPRLPRPRPRPTGDPRP | 0.0418
RRIRKRPPRLPRPRPRPHHQPRP | 0.00598
RRIRERPPRLPRPRPRPEPTPRP | 0.327
RRIRIRPPRLPRPRPRPVNDPRP | -0.00973
RRIRVRPPRLPRPRPRPMWLPRP | 0.0511
RRIRVRPPRLPRPRPRPAQHPRP | 0.151
RRIRWRPPRLPRPRPRPQSNPRP | -0.124
RRIRNRPPRLPRPRPRPQSIPRP | -0.0502
RRIRRRPPRLPRPRPRPLFFPRP | 0.137

Sequence | shrunken log2 fold change
RRIRFRPPRLPRPRPRPGFWPRP | 0.24
RRIRERPPRLPRPRPRPTPYPRP | -0.389
RRIRARPPRLPRPRPRPWRNPRP | -0.0929
RRIRERPPRLPRPRPRPVIVPRP | -0.373
RRIRARPPRLPRPRPRPLAQPRP | 0.578
RRIRERPPRLPRPRPRPCCFPRP | -0.248
RRIRYRPPRLPRPRPRPWNHPRP | -0.00776
RRIRMRPPRLPRPRPRPGHCPRP | -0.0518
RRIRNRPPRLPRPRPRPYSIPRP | -0.534
RRIRGRPPRLPRPRPRPHRQPRP | 0.0397
RRIRSRPPRLPRPRPRPRTSPRP | 0.211
RRIRERPPRLPRPRPRPSISPRP | 0.0881
RRIRDRPPRLPRPRPRPQHYPRP | -0.856
RRIRVRPPRLPRPRPRPEYRPRP | -0.115
RRIRPRPPRLPRPRPRPTRGPRP | 0.543
RRIRIRPPRLPRPRPRPQRPPRP | -0.465
RRIRMRPPRLPRPRPRPWWHPRP | 0.158
RRIRCRPPRLPRPRPRPWMLPRP | -0.419
RRIRRRPPRLPRPRPRPKGEPRP | 0.0115
RRIRVRPPRLPRPRPRPCVLPRP | -0.44
RRIRARPPRLPRPRPRPCWGPRP | 0.205
RRIRLRPPRLPRPRPRPASPPRP | 0.0633
RRIRMRPPRLPRPRPRPQTRPRP | 1.05
RRIRKRPPRLPRPRPRPFIEPRP | -0.205
RRIRDRPPRLPRPRPRPTCAPRP | 0.927
